Measurements taken from patent publication US8916693B2, “Monoconjugated chitosans as delivery agents for small interfering nucleic acids” (Nektar Therapeutics, priority 2009, dated 2014).

Test: PBS buffer hydrolysis of releasable monoPEGylated chitosan (HPLC, disappearance of starting material)
Format: physicochemical
Conditions: 25 mM PBS, pH 7.3; 2 mg in 1 mL
Experimental: PBS buffer hydrolysis of releasable monoPEGylated (20 KDa) chitosan (10 KDa): To a solution of 25 mM PBS, pH 7.3, (1 mL) was added the monoPEGylated (20 KDa) chitosan (10 KDa) (2 mg). The solution was filtered through a 0.2 μm filter and analyzed for the disappearance of the PEGylated chitosan starting material on an HPLC system with a flow rate of 0.5 mL/min, gradient (A: 0.1M TEAA, B: 80% ACN and 20% 0.1M TEAA) 15% B 0-4 min, 50% B 8 min, and 58.2% B. The column used was a Zorbax 300SB-C3 3.0×150 mm, […], column.

Substance: Releasable monoPEGylated (20 KDa) Chitosan (10 KDa)
- calculated half-life (hydrolysis, disappearance of the PEGylated chitosan): 7.04 h
